Consider 15 sequences from the DeepSol protein solubility set.

The series is described as follows: soluble on expression in E. coli; label from the status in PepcDB or PDB records.
In the case of “VFDWDGTLVDSIARIVDSMKAAARETALPERGDTRIKGIIGLGLPEAIASLYPEVGDPALVERFRCAYSEHYLAQEAQPSRLFPGVAEAMVHFREAGFRLAVATGKSRRGLDRVLAGHGWSDFFDITRCADETASKPDPLMLHEILAHCRVEPGRALMIGDSPFDLEMARRAGMDSVAVAYGAQSLEQLRPYAPRLEVEHFTELRAWLGGARREAVS”, the “soluble on expression in E. coli” value is given as “not soluble”.

On to “ITFEIAGDKLLMTLVPERLRGETASFDIEANGKVYVERGRRITARHIKALEKDNISQVVVPSEYILGKVASKDYVDLESGEIICPANGEISLETLAKLAQAG”, for which the “soluble on expression in E. coli” value is recorded as “not soluble”.

For “LSGMTGNQSPAALMSSNIDLLDAITPNVRDALTALFANIACYVLGSIWFRAGVAERIQASAFVSPGKLKNNASKKSGPISQQDLLILASRFVSPTRAYESFSRFSTEAVKSDSWHKAATPELIAHTERLLAGVLGASSASLVMDSVLQGRDLALDEVFSLVDEASSKIMLSQDMLRGAIEHAYEGMSVIDSDLNLVAWNYKYVELYQYPEGFLQQGMPISEVI”, the “soluble on expression in E. coli” value is given as “not soluble”.

For “MTVNVVVTDMDGTFLDDAKQYDRVRFMAQYQELKKRNIEFVVASGNQYYQLISFFPELKDEISFVAENGALVYEHGKQLFHGELTRHESRIVIGELLKDKQLNFVACGLKSAYVSKNAPETFVALMAKHYHRLQPVNDYHDIDDILFKFSLNLPDEQIPLVIDKLHVSLDGIMKPVTSGFGFIDLIIPGLHKANGISRLLKRWNRSPQNVVAIGDSGNDAEMLKMAHYSFAMGNAADNIKALSRYHTDDNNHQGALNVIQAVLDGTDPF”, the “soluble on expression in E. coli” value was “not soluble”.

For “MAFAKDLKRRNVLQEAVYHRIKADFDLGAQAAVRTVKKVCDAYATFKANLRAGNYGLEGSKRRIKAESKPVRFRETSAQPFDDRMLTWNLDTKMVSVWTVAGRLKGIPFVCSPEAMRLLAQRKGESDLVMRDGMFFLLATIDIPEPEVSGPDGFLGVDLGIVNIATTSDGRIMSSRQVNRYRQRKRDLRGKLQKKRTKSAARVLKRQRRKEARYATQRNHIIARKLVHTAERTSRGIGLEDLTGIRQRVTAREDQRARLHSWAFAQLGAFVEYKAKRAGVAVVHVDPRNTSRQCSECWHTHRTNRVTRARFVCRSCGIVLHADHNGSRNIAHRADAAWQRGAANRPRTPAAALEHHHHHH”, the “soluble on expression in E. coli” value is “not soluble”.

With “MRVQILKDFVKQHFPATPLLDYALEVEKITTSKKPNLILNVDGFIGVAFVDMLRNCGSFTREEADEYVDIGALNGIFVLGRSMGFIGHYLDQKRLKQGLYRHPWDDISYVLPEHMSM”, the “soluble on expression in E. coli” value was “not soluble”.

Take “MKQINDVSFLLDKRLVVLIEHQSTINENLPYRLLEYITRIYEKIVDKEKKYQKNLVKIPKPEFIVLYNGADPYPDYTELKLSDAFMDIEGLKLTGIDKIPLELIVPVYNINQGHNPEILKKCESLYGYSFFISKIREYQTQGLTLEELITPVIEYCIKNNILKDYLEAHASEVINMIFGEYDREMDIAVNRREAREEGREEGFKEGKLIIAKNLLSEGSTPEFVQRITGLTLDEIEEIGL”: the “soluble on expression in E. coli” value is “not soluble”.

With “MEPSSLELPADTVQRIAAELKCHPTDERVALHLDEEDKLRHFRECFYIPKIQDLPPVDLSLVNKDENAIYFLGNSLGLQPKMVKTYLEEELDKWAKIAAYGHEVGKRPWITGDESIVGLMKDIVGANEKEIALMNALTVNLHLLMLSFFKPTPKRYKILLEAKAFPSDHYAIESQLQLHGLNIEESMRMIKPREGEETLRIEDILEVIEKEGDSIAVILFSGVHFYTGQHFNIPAITKAGQAKGCYVGFDLAHAVGNVELYLHDWGVDFACWCSYKYLNAGAGGIAGAFIHEKHAHTIKPALVGWFGHELSTRFKMDNKLQLIPGVCGFRISNPPILLVCSLHASLEIFKQATMKALRKKSVLLTGYLEYLIKHNYGKDKAATKKPVVNIITPSHVEERGCQLTITFSVPNKDVFQELEKRGVVCDKRNPNGIRVAPVPLYNSFHDVYKFTNLLTSILDSAETKN”, the “soluble on expression in E. coli” value is “soluble”.

“MRCPWLIRVGVDIGGTFTDLIVFDEGSGRLESLKVLTTPREPWVGVIRALEEASVDIEGVDVVIHATTLGTNMFLGQEGLEPPSAVLITNRGFRDVLEIGRQNRPELYNLYFTRPKPLVPRDRRLVVKGRIDARGNVVEDIDRGEVARLAKEWCGRADVFIVSMLNSHINPVHEDEIGSIITREC”: the “soluble on expression in E. coli” value is given as “not soluble”.

Take “MAPLNYKTITSRSILSKVLVRATQQWPTDKTLNKQLSELYGAYVNSFVSKFKDKHVITISLEVVNEKFLKDKTPLFEKGLDTLKEIIWNPLIKDRCFDHTYVAQEKSLLSKKLEAMEDNKAQYSFLQLMNYMFKQEPYRYIATGQLEQIPQVTSESLYDTYLSMVQNDDCAIYVVGNINKEEVTQLILDKFAIKPFYLENKESTEITPSFDQPQYIIEKDDVDQAKLNLGYRFPSYYGKSNYYAFIVLNMMFGGDPSSVLFNEVREKQSLAYSIHSQIDGKNGFLFVLSGVSAEKYEQAKDTVIKEFDKIKNGDFDSNKIELAKKIIISHRHEASDRPKSIIEILHNQLLLNRQQTDQDFINAVNQVTKKDVIKLANEAVLDTIYVLTKGDQH”: the “soluble on expression in E. coli” value is “not soluble”.

Take “AVANILNRDYNRAQEILNGIKNPDATTYYLMAVVAARTNNLDVVINSLRESISLDSSMMKKAATDLEFAKYANDGGFKSLLRH”: the “soluble on expression in E. coli” value is “not soluble”.

“MYDWFKQMRKESPVYYDGKVWNLFKYEDCKMVLNDHKRFSSNLTGYNDKLEMLRSGKVFFDIPTRYTMLTSDPPLHDELRNLTADAFNPSNLPVDFVREVTVKLLSELDEEFDVIESFAIPLPILVISKMLGINPDVKKVKDWSDLVALRLGRADEIFSIGRKYLELISFSKKELDSRKGKEIVDLTGKIANSNLSELEKEGYFILLMIAGNETTTNLIGNAIEDFTLYNSWDYVREKGALKAVEEALRFSPPVMRTIRVTKEKVKIRDQVIDEGELVRVWIASANRDEEVFKDPDSFIPDRTPNPHLSFGSGIHLCLGAPLARLEARIALEEFAKKFRVKEIVKKEKIDNEVLNGYRKLVVRVERT”: the “soluble on expression in E. coli” value was “soluble”.

Turning to “MNLGTLVSETRNPQTMDLDALPTPELVKRFNEQDTLVAEAVKATLPDVARAVDAAAAALKSGGRIIYMGAGTSGRLGVLDASECPPTFGVPHGLVVGLIAGGPGALLKAVEGAEDSQQAGEDDLVALNLQEQDLVVGLAASGRTPYVIGGLRYARQSGCTTVAVSCNPDSPIAREANIAISPVVGPEALTGSTRLKSGTAQKMVLNMISTGAMVKFGKVYQNLMVDMKATNVKLVDRACRMVVEATGIGREEAEALLKQTDFEVKPAILMALTGLDAAAAREKLAAHQGFLRAALEH”, the “soluble on expression in E. coli” value is on record as “not soluble”.

For “GGVDSHSHIAGAKVNTGRTLRPEDSKKDLFSKEGLRQGSGFSIPSTFKTGYQYSGMGYTTVIEAAMPPLVARHTHEEFMDLPQIDKAAMPLFGNSWMVLEYLKNGDLSMCAAYVAWLLKVTKGYAIKIVNPGGTEAWGWGKNVHGLDDEVPYFGITPREIVTGLAKVNEMLGLPHSIHVHPNNLGHPGNWETTIDTMDCVKDIKAKPKFGDRDTVYYNTHLQFHSYGGTSWKDCVSKGVETADYVNKNKHVMIDVGQVTLDETTTMTADGPMEYDLHMTNGLKWANCDVELETGSGVVPFIYSPKGPVYSLQWAIGLDIFLYTQPEKLILTTDHPNAGPFVRYPRVIAWLLSKEYRNDWIQNRVHKWAAEKSHITETDREYSMYEIAQITRANSSKVLGLSGDRGHLGAGAKADISIYDIDPEEKSGKKIEKAFLEAAYVLKDGEIVVKNG”, the “soluble on expression in E. coli” value is recorded as “not soluble”.

Consider “MTELKNDRYLRALLRQPVDVTPVWMMRRAGRYLPEYKATRAQAGDFMSLCKNAELACEVTLQPLRRYPLDAAILFSDILTIPDAMGLGLYFEAGEGPRFTAPVTCKADVEKLPIPDPEGELGYVMNAVRTIRRELKGEVPLIGFSGSPWTLATYMVEGGSSKAFTVIKKMMYADPQALHLLLDKLAKSVTLYLNAQIKAGAQSVMIFDTWGGVLTGRDYQQFSLYYMHKIVDGLLRENDGRRVPVTLFTKGGGQWLEAMAETGCDALGLDWTTDIADARRRVGHKVALQGNMDPSMLYAPPARIEDEVATILAGFGQGEGHVFNLGHGIHQDVPPEHAGAFVEAVHRLSAQYHN”, for which the “soluble on expression in E. coli” value was “not soluble”.
